This note sets out measurements from paper PMC10413350, “Kinetic and structural characterization of carboxyspermidine dehydrogenase of polyamine biosynthesis” (The Journal of Biological Chemistry, 2023).

Series [1] addresses Clostridium leptum carboxyspermidine dehydrogenase (Clostridium leptum). The experiment in a line: SEC; HiLoad 16/600 Superdex 200, 25 mM Tris pH 8; 100 ul of 10 mg/ml (BfCASDH) or 5 mg/ml (ClCASDH) injected.
The target of series [2] is T1, BfCASDH (Bacteroides fragilis, UniProt I9VY56).
T1 construct: gene HMPREF1080_01141; full length (397 residues modelled per chain), N-terminal hexahistidine tag kept, pET-28b, E. coli BL21 (DE3)
T1 sequence (I9VY56 1-397): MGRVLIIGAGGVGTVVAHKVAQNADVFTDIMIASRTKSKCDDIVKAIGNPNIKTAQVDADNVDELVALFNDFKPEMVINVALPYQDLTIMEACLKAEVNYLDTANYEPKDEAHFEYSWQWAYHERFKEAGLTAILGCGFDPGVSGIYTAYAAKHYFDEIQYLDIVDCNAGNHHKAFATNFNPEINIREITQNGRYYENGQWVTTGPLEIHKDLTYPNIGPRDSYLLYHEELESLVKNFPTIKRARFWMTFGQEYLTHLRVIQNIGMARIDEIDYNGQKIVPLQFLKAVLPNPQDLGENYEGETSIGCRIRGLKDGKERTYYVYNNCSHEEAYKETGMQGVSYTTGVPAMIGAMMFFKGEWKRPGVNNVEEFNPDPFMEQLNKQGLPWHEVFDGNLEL
The experiment in a line: intrinsic tryptophan fluorescence quenching (ex […] nm, em […] nm), sigmoidal fit. The series is classed as binding.

Series [3] addresses Bacteroides fragilis carboxyspermidine dehydrogenase (Bacteroides fragilis). The experiment in a line: SEC; HiLoad 16/600 Superdex 200, 25 mM Tris pH 8; 100 ul of 10 mg/ml (BfCASDH) or 5 mg/ml (ClCASDH) injected. In general terms: In gel filtration, larger molecules generally elute earlier.
Substrate in series [4]: NCCCN
The series is described as follows: purified protein. The series is classed as biochemical, Bacteroides fragilis. As to conditions: apparent, from Hill equation (half-saturation), 2.5 mM ASA (subsaturating), 150 uM NADPH, 25 mM potassium phosphate pH 7.5.

Substrate in series [5]: NCCCCN
The series is described as follows: purified protein. The series is classed as biochemical, Bacteroides fragilis. As to conditions: apparent, from Hill equation (half-saturation), 2.5 mM ASA (subsaturating), 150 uM NADPH, 25 mM potassium phosphate pH 7.5.

Substrate in series [6]: NC(=O)C1=CN([C@@H]2O[C@H](COP(=O)(O)OP(=O)(O)OC[C@H]3O[C@@H](n4cnc5c(N)ncnc54)[C@H](OP(=O)(O)O)[C@@H]3O)[C@@H](O)[C@H]2O)C=CC1
The series is described as follows: purified protein. The series is classed as biochemical, Bacteroides fragilis. As to conditions: apparent, 2.5 mM ASA (subsaturating), 20 mM putrescine, 25 mM potassium phosphate pH 7.5, varied: cofactor.

Substrate in series [7]: N[C@@H](CC=O)C(=O)O
The series is described as follows: purified protein. Type of series: biochemical, Bacteroides fragilis. To be noted: apparent, from Hill equation (half-saturation), 20 mM putrescine, 150 uM NADPH, 25 mM potassium phosphate pH 7.5, substrate inhibition above 2.5 mM.

Substrate in series [8]: NCCCN
The series is described as follows: purified protein. The series is classed as biochemical, [Clostridium] leptum. To be noted: apparent, 2.5 mM ASA (subsaturating), 150 uM NADPH, 25 mM Tris pH 7.5.

Substrate in series [9]: NCCCCN
The experiment in a line: purified protein. The series is classed as biochemical, [Clostridium] leptum. As to conditions: apparent, 2.5 mM ASA (subsaturating), 150 uM NADPH, 25 mM Tris pH 7.5.

Substrate in series [10]: NC(=O)C1=CN([C@@H]2O[C@H](COP(=O)(O)OP(=O)(O)OC[C@H]3O[C@@H](n4cnc5c(N)ncnc54)[C@H](OP(=O)(O)O)[C@@H]3O)[C@@H](O)[C@H]2O)C=CC1
The series is described as follows: purified protein. To be noted: apparent, 2.5 mM ASA (subsaturating), 20 mM putrescine, 25 mM Tris pH 7.5, varied: cofactor. The series is classed as biochemical, [Clostridium] leptum.

A word on the stoichiometry N: it is a count of units in the complex or per binding partner. The Kd is a measure of binding affinity in units of concentration. One may read the kcat as the maximal rate divided by the concentration of active sites. Usually kcat/Km stands for the turnover number divided by the Michaelis constant. Usually Km stands for the concentration of substrate that gives half-maximal velocity.

In the case of “Clostridium leptum carboxyspermidine dehydrogenase (enzyme)”, the stoichiometry N in [1] turned out to be 2.

Turning to `NCCCN` [DAP], the Kd in series [2] was 15 ± 2 mM.

Regarding “Bacteroides fragilis carboxyspermidine dehydrogenase (enzyme)”, the stoichiometry N in [3] was 2.

As for `NCCCCN` [putrescine], binding in series [2] was put at a Kd of 11 ± 1 mM.

B1: BfCASDH (Bacteroides fragilis CL05T12C13) (protein)
chain: MGRVLIIGAGGVGTVVAHKVAQNADVFTDIMIASRTKSKCDDIVKAIGNPNIKTAQVDADNVDELVALFNDFKPEMVINVALPYQDLTIMEACLKAEVNYLDTANYEPKDEAHFEYSWQWAYHERFKEAGLTAILGCGFDPGVSGIYTAYAAKHYFDEIQYLDIVDCNAGNHHKAFATNFNPEINIREITQNGRYYENGQWVTTGPLEIHKDLTYPNIGPRDSYLLYHEELESLVKNFPTIKRARFWMTFGQEYLTHLRVIQNIGMARIDEIDYNGQKIVPLQFLKAVLPNPQDLGENYEGETSIGCRIRGLKDGKERTYYVYNNCSHEEAYKETGMQGVSYTTGVPAMIGAMMFFKGEWKRPGVNNVEEFNPDPFMEQLNKQGLPWHEVFDGNLEL
notes: full length (397 residues modelled per chain), N-terminal hexahistidine tag kept, pET-28b, E. coli BL21 (DE3)
Consider B1, for which the K0.5 is recorded as 19.7 ± 3.6 mM in series [4], 4.2 ± 0.3 mM in series [5] and 2.7 ± 0.1 mM in series [7]. Moreover, the kcat in [4] was found to be 0.34 ± 0.03 s⁻¹; in [5], 0.41 ± 0.02 s⁻¹; in series [6], 0.39 ± 0.05 s⁻¹; in [7] it was 0.64 ± 0.02 s⁻¹. Also, the kcat/Km in [4] was 17 ± 3 M⁻¹ s⁻¹; in [5] it was 96 ± 7 M⁻¹ s⁻¹; in [6], 6700 ± 200 M⁻¹ s⁻¹; in [7], 230 ± 15 M⁻¹ s⁻¹. Moreover, in series [6], the Km worked out at 57 ± 3 µM.

B2: ClCASDH ([Clostridium] leptum DSM 753) (protein)
chain: MGKALIIGCGGVASVAIHKCCQNSGVFEEICIASRTKSKCDALKEKLSGGKTKITTAQVDANSVDELTALINQVKPDVVLNLALPYQDLTIMEACLAAKVNYVDTANYEPEDTAKFEYSWQWAYRKKFEDAGITALLGSGFDPGVTGVFSAYAQKHYFDEINYIDILDCNAGDHGYPFATNFNPEINIREVSAKGSYWEDGHWVETEPMEIKRVYNFPEIGDKDMYLLHHEELESLALNIKGIKRIRFFMTFGQSYLTHLKCLEDVGMTSIEPIEFQGQQIVPLQFLKAVLPDPSSLGPRTKGKTNIGCIFQGKKDGKDKTYYVYNVCDHQECYKEVGSQAVAYTTGVPAMIGAMMLMTGVWNKPGVHNIEEFDPDPFMDALNKWGLPWKESFSPELVD
notes: full length, N-terminal hexahistidine tag, pET-28b, E. coli BL21 (DE3)
As for B2, in [8], the Km amounted to 6900 ± 1100 µM, the turnover number (kcat) came out at 0.49 ± 0.03 s⁻¹ and the kcat/Km worked out at 71 ± 12 M⁻¹ s⁻¹. In series [9], the Michaelis-Menten constant (Km) worked out at 5000 ± 600 µM, the kcat is 0.37 ± 0.01 s⁻¹ and the kcat/Km is 74 ± 10 M⁻¹ s⁻¹. In addition, in series [10], the Km is 16 ± 2 µM, the kcat came out at 0.22 ± 0.02 s⁻¹ and the kcat/Km turned out to be 13800 ± 900 M⁻¹ s⁻¹.
